Reference: publication PMC9278990 (Nature structural & molecular biology, 2021)
No end group written: not given here.

Molecular target: recombinant LDHA (human, UniProt P00338 1-332)
Test: fluorescence polarisation

- binding result: binds
Binder: AQRMNTAFTP (peptide, UniProt Q8NFG4 219-228, looked up, also: rhodamine B label (position not given here)) [FLCN-10 peptide (aa 219-228), rhodamine B-labeled]
